Source: patent US12662540B2, “Compositions and methods for inhibition of MICA/B shedding” (DANA-FARBER CANCER INSTITUTE, INC., priority 2017, dated 2026)

Legend:
A375 cells = assay: NK cell cytotoxicity assay (51Cr release), human NK cells against human tumor cells; format: cell-based; conditions: human NK cells; antibody added at time of killing assay (10 μg/ml, 66.7 nM)
Description: Human NK cells were isolated from fresh leukapheresis blood collars that had been generated by Brigham & Women's Hospital, Boston, from healthy donors. Samples were diluted with an equal volume of PBS and blood mononuclear cells were isolated by Ficoll density gradient centrifugation. Cells were washed with PBS, and NK cells were isolated by negative selection using the Human NK Cell Isolation Kit (130-092-657, Miltenyi Biotech) using an autoMACS system (Miltenyi Biotech). Enriched NK cells (purity of 50-90%) were then incubated with anti-CD56 (PE or APC conjugated) and anti-CD3 (FITC or Pacific Blue conjugated) (Biolegend) and sorted using a BD FACS Aria. Following sorting, NK cell purity was ˜99%. These cells were cultured for twelve hours in complete RPMI media supplemented with 300-1000 U/ml of recombinant human IL-2 (BD Pharmingen).
Target cells were labeled for 1 hour with 100 μCi of ^51[Cr] per 2×10^6 cells in 0.2 ml of media. Subsequently, cells were washed and plated in V-bottom 96-wells plates (5,000 target cells per well). To determine the experimental release, NK cells were added in an equal volume, but at different ratios. To determine maximum and spontaneous release, target cells were mixed with an equal volume of 2% Triton-X100 in PBS or an equal volume of media, respectively. Antibodies were added at a final concentration of 10 μg/ml.
For experiments shown in FIGS. 1E, 10, and 13E antibodies were added at the time of the killing assay. For FIGS. 3A-B, antibodies were added to tumor cells 48 hours prior to labelling with ^51[Cr] to inhibit MICAS shedding. The isotype control antibody for assays with human NK cells was recombinant human IgG1 Fc (BE0096, BioXcell). […] At the end of the incubation period, plates were centrifuged (2000 rpm, 5 minutes), part of the supernatant was collected, mixed with scintillation fluid, and radioactivity was quantified using a MicroBeta2 reader (Perkin Elmer). Specific killing was calculated using the following formula: 100×(Experimental release−Spontaneous release)/(Maximum release−Spontaneous release).

NKG2D binding to MICA = NKG2D binding to MICA (Homo sapiens, UniProt Q29983, C59Y/G229S/K148E/K196E/M152V/Q274R/S238T/T236I/T47A/W233R); assay: Bead assay for NKG2D receptor binding to MICA; conditions: MICA (allele 008) beads, human NKG2D-Fc dimer 10 μg/ml
Chain of NKG2D binding to MICA (Q29983 24-307 T47A/C59Y/K148E/M152V/K196E/G229S/W233R/T236I/S238T/Q274R): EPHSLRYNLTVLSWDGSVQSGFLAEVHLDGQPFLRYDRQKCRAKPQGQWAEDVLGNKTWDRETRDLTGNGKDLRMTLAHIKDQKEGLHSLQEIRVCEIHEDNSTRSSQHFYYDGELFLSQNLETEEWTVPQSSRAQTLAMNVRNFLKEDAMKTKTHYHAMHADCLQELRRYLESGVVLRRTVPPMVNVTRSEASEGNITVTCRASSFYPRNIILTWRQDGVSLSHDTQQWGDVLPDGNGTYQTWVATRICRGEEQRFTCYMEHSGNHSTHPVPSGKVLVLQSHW
Description: Streptavidin-conjugated C4 beads (BD Pharmingen) were incubated for 2 hours with MICA biotinylated at a C-terminal BirA site (200 ng of MICA per 10,000 beads). Beads were then washed with PBS containing 1% FBS. For the NKG2D receptor binding assay, chimeric human NKG2D-Fc dimer (1299-NK-050, R&D Systems) was conjugated with Alexa^488 (A10468, Molecular Probes) and used at 10 μg/ml. Binding of murine NKG2D to human MICA was measured using NKG2D-Fc dimers (10 μg/ml) followed by an Alexa^488-conjugated anti-human IgG (Molecular Probes) that bound to the Fc region of the NKG2D-Fc dimer. MICA antibodies were also used as competitors for NKG2D dimer binding at concentrations of 10, 30 and 100 μg/ml. In these assays, NKG2D dimer and MICA antibodies were co-incubated with biotinylated MICA*008-conjugated beads.

[1] = tested on: B16F10-MICA lung metastases; assay: Flow cytometry-based analysis of immune and tumor cells in lung tissue; format: in vivo, C57BL/6 mice
Description: Wild-type mice were injected with 1×10^6 B16F10 cells that were previously transduced with ZsGreen-based lentiviral vectors (full-length MICA, secreted MICA or empty vector). In some experiments, mice received a lower dose of B16F10-MICA tumor cells (7×10^5). On days 1, 2, 7 and 10 following B16F10-MICA cell injection, mice received 200 μg of 7C6-mIgG2a or isotype control (C1184) antibodies by intraperitoneal injection. Prior to euthanasia, mice received an intravenous injection of 50 μl of APC-conjugated anti-CD45.2 (clone104, Biolegend) to label intravascular immune cells. Approximately 5 minutes later, mice were euthanized by CO2 inhalation and cell suspensions were generated from lung tissue. Lungs were cut into small pieces which were re-suspended in 10 ml of RPMI-1640 supplemented with 1 mg/ml collagenase type IV, 0.1 mg/ml hyaluronidase, and 20 U/ml DNase type IV. Samples were dissociated in a gentleMACS instrument (Miltenyi) using the program 37C_m_LDK 1 which digests the tissue by incubation with 37° C. followed by mechanical dissociation. Cells were then washed with PBS, Fc receptors were blocked with Mouse True Stain FcX (Biolegend), and cells were stained with PE-Cy7 or v450-conjugated anti-CD45.2 (104), PE or BV785-NK1.1 (PK136), PerCP-Cy5.5 or Alexa^700-NKp46 (29A1.4), APC or APC-Cy7-CD3c (145.2C11), APC or BV511-TCRβ, PE-Cy5 or Alexa^488-CD69 (H1.2F3), BV421-NKG2D (CX5), BV510-Ly49C (5E6), BV570-CD62L (MEL-14), BV605-CD49a (Ha31/8), Alexa^488-EOMES (Dan11mag), PE-Granzyme A (GzA-3G8.5), PE or PERCP-Cy5.5-CD16/CD32 (93), PE-Cy7-Granzyme B (NGZB), BV510-DNAM-1 (10E5), Alexa^488-KLRG1 (2F1), PE-CXCR6 (SA051D1), PERCP-Cy5.5 or PE-Cy7-CD127 (A7R34), BV510-CXCR3 (CXCR3-173), Zombie NIR, Zombie Yellow or Zombie UV (all from Biolegend, BD Pharmigen or eBiosciences). For transcription factor staining, cells were fixed and permeabilized by a Transcription Factor Buffer kit (BDB562574). For Fc receptor staining, small aliquots of cells from the lung suspensions were separated and stained with PE or PerCP-Cy5.5-CD16/32 antibody (the incubation with Mouse True Stain FcX was skipped in that aliquot of cells). Tumor cells were stained with APC-conjugated anti-H2-Kb (AF6-88.5, Biolegend) and BV650-activated Caspase-3 (C92-605, BD Pharmingen) following permeabilization. Even though the CD45.2 antibody given intravenously and the anti-H2-Kb antibody were conjugated to the same fluorophore (APC), B16F10 cells could be identified based on their larger size, ZsGreen expression as well as the absence of CD45.2 expression. Samples were acquired using a LSR Fortessa, CytoFLEX or a Sony Spectral Analyzer and analyzed by FlowJo V10 software.

B1: 7C6: monoclonal antibody from mice immunized with recombinant MICA α3 domain; parental mIgG2b; VH SEQ ID NO: 7, VL SEQ ID NO: 8 (antibody)
VH: QIQLVQSGPELKKPGETVKVSCKASGYMFTNYAMNWVKQAPEKGLKWMGWINTHTGDPTYADDFKGRIAFSLETSASTAYLQINNLKNEDTATYFCVRTYGNYAMDYWGQGTSVTVSSAKTTAPSVYPLAPVCGDTTGSSVTLGCLVKGYFPEPVTLTWNSGSLSSGVHTFPAVLQSDLYTLSSSVTVTSS
VL: DIQMTQTTSSLSASLGDRVTISCSASQDISNYLNWYQQKPDGTVKLLIYDTSILHLGVPSRFSGSGSGTDYSLTISNLEPEDIATYYCQQYSKFPRTFGGGTTLEIK
modifications: mAb 7C6 heavy chain amino acid sequence; mAb 7C6 light chain amino acid sequence
NK cell mediated cytotoxicity against human tumor cells (A375 cells): increases NK cell cytotoxicity
inhibition of NKG2D receptor binding to MICA (NKG2D binding to MICA): do not inhibit NKG2D receptor binding
H2-Kb (MHC class I) expression by tumor cells ([1]; lung metastases): MHC class I upregulation
apoptosis of tumor cells (active caspase-3) ([1]; lung metastases): massive tumor cell apoptosis
B16F10-MICA tumor cells within lung tissue (percentage, absolute numbers) ([1]; mouse, in vivo): substantial reduction of tumor cell load within lung tissue
NKG2D levels on lung-infiltrating NK cells ([1]; versus isotype control): restored NKG2D levels by lung NK cells
